This is an account of results in IntAct's records for PubMed 21771788.

To fix the notation:
B1: Cytoplasmic 60S subunit biogenesis factor ZNF622 (Homo sapiens), Q969S3 (parent)
chain: MATYTCITCRVAFRDADMQRAHYKTDWHRYNLRRKVASMAPVTAEGFQERVRAQRAVAEEESKGSATYCTVCSKKFASFNAYENHLKSRRHVELEKKAVQAVNRKVEMMNEKNLEKGLGVDSVDKDAMNAAIQQAIKAQPSMSPKKAPPAPAKEARNVVAVGTGGRGTHDRDPSEKPPRLQWFEQQAKKLAKQQEEDSEEEEEDLDGDDWEDIDSDEELECEDTEAMDDVVEQDAEEEEAEEGPPLGAIPITDCLFCSHHSSSLMKNVAHMTKDHSFFIPDIEYLSDIKGLIKYLGEKVGVGKICLWCNEKGKSFYSTEAVQAHMNDKSHCKLFTDGDAALEFADFYDFRSSYPDHKEGEDPNKAEELPSEKNLEYDDETMELILPSGARVGHRSLMRYYKQRFGLSRAVAVAKNRKAVGRVLQQYRALGWTGSTGAALMRERDMQYVQRMKSKWMLKTGMKNNATKQMHFRVQVRF
B2: Mitogen-activated protein kinase kinase kinase 5 (Homo sapiens), Q99683 (parent)
chain: MSTEADEGITFSVPPFAPSGFCTIPEGGICRRGGAAAVGEGEEHQLPPPPPGSFWNVESAAAPGIGCPAATSSSSATRGRGSSVGGGSRRTTVAYVINEASQGQLVVAESEALQSLREACETVGATLETLHFGKLDFGETTVLDRFYNADIAVVEMSDAFRQPSLFYHLGVRESFSMANNIILYCDTNSDSLQSLKEIICQKNTMCTGNYTFVPYMITPHNKVYCCDSSFMKGLTELMQPNFELLLGPICLPLVDRFIQLLKVAQASSSQYFRESILNDIRKARNLYTGKELAAELARIRQRVDNIEVLTADIVINLLLSYRDIQDYDSIVKLVETLEKLPTFDLASHHHVKFHYAFALNRRNLPGDRAKALDIMIPMVQSEGQVASDMYCLVGRIYKDMFLDSNFTDTESRDHGASWFKKAFESEPTLQSGINYAVLLLAAGHQFESSFELRKVGVKLSSLLGKKGNLEKLQSYWEVGFFLGASVLANDHMRVIQASEKLFKLKTPAWYLKSIVETILIYKHFVKLTTEQPVAKQELVDFWMDFLVEATKTDVTVVRFPVLILEPTKIYQPSYLSINNEVEEKTISIWHVLPDDKKGIHEWNFSASSVRGVSISKFEERCCFLYVLHNSDDFQIYFCTELHCKKFFEMVNTITEEKGRSTEEGDCESDLLEYDYEYDENGDRVVLGKGTYGIVYAGRDLSNQVRIAIKEIPERDSRYSQPLHEEIALHKHLKHKNIVQYLGSFSENGFIKIFMEQVPGGSLSALLRSKWGPLKDNEQTIGFYTKQILEGLKYLHDNQIVHRDIKGDNVLINTYSGVLKISDFGTSKRLAGINPCTETFTGTLQYMAPEIIDKGPRGYGKAADIWSLGCTIIEMATGKPPFYELGEPQAAMFKVGMFKVHPEIPESMSAEAKAFILKCFEPDPDKRACANDLLVDEFLKVSSKKKKTQPKLSALSAGSNEYLRSISLPVPVLVEDTSSSSEYGSVSPDTELKVDPFSFKTRAKSCGERDVKGIRTLFLGIPDENFEDHSAPPSPEEKDSGFFMLRKDSERRATLHRILTEDQDKIVRNLMESLAQGAEEPKLKWEHITTLIASLREFVRSTDRKIIATTLSKLKLELDFDSHGISQVQVVLFGFQDAVNKVLRNHNIKPHWMFALDSIIRKAVQTAITILVPELRPHFSLASESDTADQEDLDVEDDHEEQPSNQTVRRPQAVIEDAVATSGVSTLSSTVSHDSQSAHRSLNVQLGRMKIETNRLLEELVRKEKELQALLHRAIEEKDQEIKHLKLKSQPIEIPELPVFHLNSSGTNTEDSELTDWLRVNGADEDTISRFLAEDYTLLDVLYYVTRDDLKCLRLRGGMLCTLWKAIIDFRNKQT
partner: B1 chain

The variants in the first assay derive from B1. Conditions: with m3k5_human MAP3K5, Q99683.
With C305S, the “effect of a mutation on the interaction” value is reported as “decreasing interaction”.

For the variant C308S, the “effect of a mutation on the interaction” value was “decreasing interaction”.

C305S;C308S: the “effect of a mutation on the interaction” value is “disrupting interaction”.

In another assay the parent is B2. Particulars: with zn622_human ZNF622, Q969S3.
In the case of C1360S, the “effect of a mutation on the interaction” value is listed as “decreasing interaction”.

Turning to C1351S, the “effect of a mutation on the interaction” value is listed as “decreasing interaction”.

In the case of C1351S;C1360S, the “effect of a mutation on the interaction” value is reported as “disrupting interaction”.

In another assay the parent is B2. Particulars: with zn622_human ZNF622, Q969S3. The source holds these as a separate data set.
With C1351S;C1360S, the “effect of a mutation on the interaction” value was “disrupting interaction”.
